Experimental findings from the supplement of paper PMC10567573 are described below.

The chains are these.
B1: FAM189A2 (parent)
chain: CALNALTTTVCLVAAALRYLQIFA
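Further: lentivirally expressed fusions sorted by FACS into six bins by GFP to DsRed ratio, PSI derived from sequencing read proportions per bin multiplied by bin number.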

In the data set the parent is B1. Briefly: protein stability index of a GFP-peptide fusion (GPS, HEK-293T) (PSI 1-6); higher = more stable. Conditions: c terminus: a fixed tail appended.
For the variant CALNALTTTNCLVAAALRYLQIFA, the protein stability index came out at 2.53.

Take CALNALTTTLCLVAAALRYLQIFA: the protein stability index was determined as 3.21.

Turning to CALNALTTTACLVAAALRYLQIFA, the protein stability index worked out at 2.46.

With CALNALTTTVCCVAAALRYLQIFA, the protein stability index was determined as 2.39.

Regarding CALNALTTTVCGVAAALRYLQIFA, the protein stability index worked out at 3.05.

Consider CALNALTTTVCYVAAALRYLQIFA, for which the protein stability index was found to be 3.88.

As to CALNALTTTVCEVAAALRYLQIFA, the protein stability index was 1.51.

Consider CALNALTTTVCIVAAALRYLQIFA, for which the protein stability index came out at 3.35.

For the variant CALNALTTTVCFVAAALRYLQIFA, the protein stability index was 2.56.

Consider CALNALTTTVCKVAAALRYLQIFA, for which the protein stability index turned out to be 2.3.

Turning to CALNALTTTVCHVAAALRYLQIFA, the protein stability index was 3.28.

Turning to CALNALTTTVCRVAAALRYLQIFA, the protein stability index amounted to 2.39.

Regarding CALNALTTTVCTVAAALRYLQIFA, the protein stability index was 2.96.

For CALNALTTTVCNVAAALRYLQIFA, the protein stability index came to 4.01.

On to CALNALTTTVCWVAAALRYLQIFA, for which the protein stability index was 3.65.

Take CALNALTTTVCAVAAALRYLQIFA: the protein stability index turned out to be 3.5.

Turning to CALNALTTTVCMVAAALRYLQIFA, the protein stability index was 3.44.

In the case of CALNALTTTVCPVAAALRYLQIFA, the protein stability index is 3.76.

In the case of CALNALTTTVCLVAAALRYIQIFA, the protein stability index stood at 2.76.

As for CALNALTTTVCLVAAALRYMQIFA, the protein stability index stood at 3.29.

Consider CALNALTTTVCLVAAALRYFQIFA, for which the protein stability index was determined as 2.75.

As for CALNALTTTVCLVAAALRYQQIFA, the protein stability index is 3.06.

Take CALNALTTTVCLVAAALRYTQIFA: the protein stability index was found to be 3.88.

Regarding CALNALTTTVCLVAAALRYKQIFA, the protein stability index was determined as 3.6.

As to CALNALTTTVCLVAAALRYVQIFA, the protein stability index was 1.72.

Regarding CALNALTTTVCLVAAALRYNQIFA, the protein stability index is 2.53.

Consider CALNALTTTVCLVAAALRYRQIFA, for which the protein stability index was determined as 3.02.

Take CALNALTTTVCLVAAALRYGQIFA: the protein stability index was determined as 2.41.

Take CALNALTTTVCLDAAALRYLQIFA: the protein stability index is 2.59.

As for CALNALTTTVCLYAAALRYLQIFA, the protein stability index is 2.68.

For CALNALTTTVCLFAAALRYLQIFA, the protein stability index is 3.5.

As to CALNALTTTVCLSAAALRYLQIFA, the protein stability index came out at 2.06.

With CALNALTTTVCLTAAALRYLQIFA, the protein stability index was 3.

Consider CALNALTTTVCLPAAALRYLQIFA, for which the protein stability index came to 2.88.

For the variant CALNALTTTVCLLAAALRYLQIFA, the protein stability index amounted to 2.8.

Turning to CALNALTTTVCLKAAALRYLQIFA, the protein stability index was 2.78.

For the variant CALNALTTTVCLIAAALRYLQIFA, the protein stability index turned out to be 2.9.

Regarding CALNALTTTVCLAAAALRYLQIFA, the protein stability index was found to be 2.99.

For CALNALTTTVCLRAAALRYLQIFA, the protein stability index is 3.73.

For CALNALTTTVCLQAAALRYLQIFA, the protein stability index worked out at 2.8.

As for CALNALTTTVCLWAAALRYLQIFA, the protein stability index was 3.96.

As to CALNALTTTVCLNAAALRYLQIFA, the protein stability index is 2.88.

With CALNALTTTVCLGAAALRYLQIFA, the protein stability index is 3.15.

Turning to CALNALTTTVCLMAAALRYLQIFA, the protein stability index worked out at 2.25.

For the variant CALNALTTTVCLEAAALRYLQIFA, the protein stability index worked out at 3.61.

As to CALNALTTTVCLVAAALRLLQIFA, the protein stability index is 3.58.

As for CALNALTTTVCLVAAALRHLQIFA, the protein stability index came to 1.98.

With CALNALTTTVCLVAAALRCLQIFA, the protein stability index was 3.41.

With CALNALTTTVCLVAAALRPLQIFA, the protein stability index stood at 2.86.

For CALNALTTTVCLVAAALRELQIFA, the protein stability index was 3.73.

With CALNALTTTVCLVAAALRFLQIFA, the protein stability index worked out at 3.29.

Regarding CALNALTTTVCLVAAALRALQIFA, the protein stability index came to 3.25.

As for CALNALTTTVCLVAAALRWLQIFA, the protein stability index came out at 3.75.

With CALNALTTTVCLVAAALRVLQIFA, the protein stability index was 1.9.

Turning to CALNALTTTVCLVAAALRSLQIFA, the protein stability index came out at 3.45.

Regarding CALNALTTTVCLVAAALRRLQIFA, the protein stability index worked out at 2.4.

In the case of CALNALTTTVCLVAAALRNLQIFA, the protein stability index was 3.25.

As to CALNALTTTVCLVAAALRILQIFA, the protein stability index came out at 3.74.

Take CALNALTTTVCLVAAALRKLQIFA: the protein stability index is 2.19.

CALNALTTTVCLVAAACRYLQIFA: the protein stability index was found to be 3.24.

For CALNALTTTVCLVAAAYRYLQIFA, the protein stability index came to 2.25.

On to CALNALTTTVCLVAAAFRYLQIFA, for which the protein stability index worked out at 3.04.

Turning to CALNALTTTVCLVAAAPRYLQIFA, the protein stability index turned out to be 2.91.

For CALNALTTTVCLVAAAMRYLQIFA, the protein stability index was determined as 4.11.

In the case of CALNALTTTVCLVAAANRYLQIFA, the protein stability index was 3.87.

Consider CALNALTTTVCLVAAATRYLQIFA, for which the protein stability index worked out at 2.14.

Turning to CALNALTTTVCLVAAAKRYLQIFA, the protein stability index worked out at 3.29.

As for CALNALTTTVCLVAAAIRYLQIFA, the protein stability index was found to be 4.04.

For the variant CALNALTTTVCLVAAAWRYLQIFA, the protein stability index came to 3.15.

With CALNALTTTVCLVAAAHRYLQIFA, the protein stability index came to 2.72.

Consider CALNALTTTVCLVAAAQRYLQIFA, for which the protein stability index is 2.57.

In the case of CALNALTTTVCLVAAAERYLQIFA, the protein stability index is 3.03.

CALNALTTTVCLVAAAVRYLQIFA: the protein stability index is 1.38.

Turning to CALNALTTTVCLVAAAGRYLQIFA, the protein stability index was determined as 3.97.

In the case of CALNALTTTVCLVAAAARYLQIFA, the protein stability index is 1.47.

With CALNALTTTVCLVAAALRYLQAFA, the protein stability index is 1.99.

For the variant CALNALTTTVCLVAAALRYLQEFA, the protein stability index amounted to 3.28.

Consider CALNALTTTVCLVAQALRYLQIFA, for which the protein stability index was found to be 2.05.

For the variant CALNALTTTVCLVALALRYLQIFA, the protein stability index turned out to be 2.19.

On to CALNALTTTVCLVACALRYLQIFA, for which the protein stability index came to 2.71.

For the variant CALNALTTTVCLVASALRYLQIFA, the protein stability index is 3.48.

With CALNALTTTVCLVAKALRYLQIFA, the protein stability index came to 2.76.

Regarding CALNALTTTVCLVAVALRYLQIFA, the protein stability index stood at 3.64.

Take CALNALTTTVCLVANALRYLQIFA: the protein stability index was found to be 3.15.

As for CALNALTTTVCLVAMALRYLQIFA, the protein stability index was 3.68.

As to CALNALTTTVCLVAHALRYLQIFA, the protein stability index was 2.6.

As for CALNALTTTVCLVAYALRYLQIFA, the protein stability index stood at 3.03.

On to CALNALTTTVCLVAIALRYLQIFA, for which the protein stability index was found to be 3.05.

For the variant CALNALTTTVCLVADALRYLQIFA, the protein stability index is 3.14.

On to CALNALTTTVCLVATALRYLQIFA, for which the protein stability index amounted to 1.8.

As for CALNALTTTVCLVAGALRYLQIFA, the protein stability index was determined as 2.9.

Regarding CALNALTTTVCLVAFALRYLQIFA, the protein stability index was 4.15.

Consider CALNALTTTVCLVAWALRYLQIFA, for which the protein stability index turned out to be 2.59.

For CALNALTTTVCLVARALRYLQIFA, the protein stability index was 2.41.
